This assay has as its target OSMR:gp130 receptor complex on A375 melanoma cells (UniProt Q99650). The assay is described as follows: cell-based or functional assay.

Chain of OSMR:gp130 receptor complex on A375 melanoma cells (Q99650 28-979 limits assumed, chain 1 of 2): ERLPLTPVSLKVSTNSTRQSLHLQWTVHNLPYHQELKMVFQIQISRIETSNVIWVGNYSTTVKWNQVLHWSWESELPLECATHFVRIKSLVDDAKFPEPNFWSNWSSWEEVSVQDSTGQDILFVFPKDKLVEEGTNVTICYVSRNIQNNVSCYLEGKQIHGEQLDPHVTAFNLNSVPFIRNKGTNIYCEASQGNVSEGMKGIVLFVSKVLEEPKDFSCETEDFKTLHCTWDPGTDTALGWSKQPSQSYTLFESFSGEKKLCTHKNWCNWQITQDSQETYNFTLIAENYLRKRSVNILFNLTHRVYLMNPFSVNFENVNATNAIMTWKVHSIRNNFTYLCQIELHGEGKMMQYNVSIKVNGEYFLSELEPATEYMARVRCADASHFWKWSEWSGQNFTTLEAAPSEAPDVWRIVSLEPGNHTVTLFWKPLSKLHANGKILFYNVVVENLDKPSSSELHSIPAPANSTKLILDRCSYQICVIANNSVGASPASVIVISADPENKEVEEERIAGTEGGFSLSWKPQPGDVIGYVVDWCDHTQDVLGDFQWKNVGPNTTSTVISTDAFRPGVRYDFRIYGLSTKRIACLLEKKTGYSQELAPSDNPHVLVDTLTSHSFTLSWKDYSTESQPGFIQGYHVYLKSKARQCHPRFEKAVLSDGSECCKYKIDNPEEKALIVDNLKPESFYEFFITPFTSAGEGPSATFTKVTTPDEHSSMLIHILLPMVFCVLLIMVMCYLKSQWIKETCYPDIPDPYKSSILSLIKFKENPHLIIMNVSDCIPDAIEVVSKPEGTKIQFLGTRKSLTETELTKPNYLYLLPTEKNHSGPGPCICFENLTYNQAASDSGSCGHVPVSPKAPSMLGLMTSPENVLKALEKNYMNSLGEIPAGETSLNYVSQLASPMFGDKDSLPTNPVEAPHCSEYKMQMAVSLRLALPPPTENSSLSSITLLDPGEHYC
Chain of OSMR:gp130 receptor complex on A375 melanoma cells (P40189 23-918 limits assumed, chain 2 of 2, further chain): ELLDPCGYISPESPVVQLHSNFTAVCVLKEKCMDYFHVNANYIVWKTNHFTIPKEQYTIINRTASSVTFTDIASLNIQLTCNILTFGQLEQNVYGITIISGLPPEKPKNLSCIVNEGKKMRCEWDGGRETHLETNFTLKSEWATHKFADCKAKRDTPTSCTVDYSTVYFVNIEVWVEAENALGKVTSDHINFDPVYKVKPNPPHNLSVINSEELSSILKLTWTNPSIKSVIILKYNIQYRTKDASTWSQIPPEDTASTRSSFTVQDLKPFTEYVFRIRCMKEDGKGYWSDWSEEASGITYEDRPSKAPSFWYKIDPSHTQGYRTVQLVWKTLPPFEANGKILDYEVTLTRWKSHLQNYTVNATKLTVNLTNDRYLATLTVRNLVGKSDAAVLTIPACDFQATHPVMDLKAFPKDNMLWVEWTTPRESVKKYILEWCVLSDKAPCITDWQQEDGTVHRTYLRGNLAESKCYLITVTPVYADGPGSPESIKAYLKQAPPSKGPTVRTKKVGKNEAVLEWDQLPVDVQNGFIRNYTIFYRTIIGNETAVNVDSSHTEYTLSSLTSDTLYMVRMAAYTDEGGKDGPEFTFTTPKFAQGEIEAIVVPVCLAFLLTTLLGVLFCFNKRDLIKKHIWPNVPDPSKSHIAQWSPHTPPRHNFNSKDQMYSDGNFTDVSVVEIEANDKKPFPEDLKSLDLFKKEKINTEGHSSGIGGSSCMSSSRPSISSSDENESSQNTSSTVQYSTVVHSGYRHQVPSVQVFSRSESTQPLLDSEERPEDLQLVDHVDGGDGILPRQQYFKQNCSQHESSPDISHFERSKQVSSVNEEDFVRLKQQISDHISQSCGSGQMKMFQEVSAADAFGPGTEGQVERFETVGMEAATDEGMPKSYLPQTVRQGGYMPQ

As to “OSM-WT ('AGA' modified human Oncostatin M, referred to as wild-type OSM) (from UniProt P13725 26-217) (ligand)”, the concentration that suppresses A375 melanoma cell proliferation by ~50% was 20 ng/mL and the concentration that suppresses A375 melanoma cell proliferation by ~90% turned out to be 50 ng/mL.

Values taken from US20100310509A1.
